# Patent US20120107299
# Experiments:
# pSer380 PTEN = biological target: T1, pSer380 PTEN
# T1 chain: EPDHYRYSDTTDSDPENE
# [1] = biological target: T2, pSer380/pThr382/pThr 383 PTEN
# T2 chain: EPDHYRYSDTTDSDPENE
# pThr382 PTEN = biological target: T3, pThr382 PTEN
# T3 chain: EPDHYRYSDTTDSDPENE
# pThr382/pThr 383 PTEN = biological target: T4, pThr382/pThr 383 PTEN
# T4 chain: EPDHYRYSDTTDSDPENE
# pThr383 PTEN = biological target: T5, pThr383 PTEN
# T5 chain: EPDHYRYSDTTDSDPENE
protein,measurement,setting,value
GST (Glutathione S-Transferase)-NDRG2 fusion protein (protein) MAELQEVQITEEKPLLPGQTPEAAKTHSVETPYGSVTFTVYGTPKPKRPAILTYHDVGLNYKSCFQPLFQFEDMQEIIQNFVRVHVDAPGMEEGAPVFPLGYQYPSLDQLADMIPCVLQYLNFSTIIGVGVGAGAYILARYALNHPDTVEGLVLINIDPNAKGWMDWAAHKLTGLTSSIPEMILGHLFSQEELSGNSELIQKYRNIITHAPNLDNIELYWNSYNNRRDLNFERGGDITLRCPVMLVVGDQAPHEDAVVECNSKLDPTQTSFLKMADSGGQPQLTQPGKLTEAFKYFLQGMGYMASSCMTRLSRSRTASLTSAASVDGNRSRSRTLSQSSESGTLSSGPPGHTMEVSC,"in vitro dephosphorylation of PTEN, Western blot with anti-PTEN antibodies specific to each phosphorylation","FLAG-PTEN, P60484","dephosphorylation effects were recognized in BAP used as a positive control, and in GST-NDRG2"
same,phosphorylation status of PTEN protein by various PTEN phosphorylation antibodies after the reaction,"FLAG-PTEN, P60484","only S380, T382, and T383 are dephosphorylated by mixing with NDRG2, and S370 and S385 are not altered"
same,dephosphorylation of phosphorylated peptides (DOTBLOT method),pSer380 PTEN,cannot dephosphorylate the peptide wherein only S380 or only T383 is phosphorylated
same,"dot blot phosphatase assay, detection with rabbit anti-Phospho-PTEN (Ser380/Thr382/Thr383) polyclonal antibodies",[1],"signals disappeared in the phosphorylated peptides at Thr382, Thr382/Thr383, and Ser380/Thr382/Thr383 by the reaction with NDRG2 protein"
same,"dot blot phosphatase assay, detection with rabbit anti-phospho-PTEN (Ser380) polyclonal antibodies",[1],a signal disappeared in the phosphorylated peptide of Ser380/Thr382/Thr383 by the reaction with NDRG2 protein
same,"production level of the phosphoric acid groups (phosphopeptide phosphatase assay, BIOMOL GREEN)",[1],an increase in the production level of the phosphoric acid groups in the Thr382/Thr383 peptide and Ser380/Thr382/Thr383 peptide was recognized compared to the phosphorylation of Thr382 alone
same,"dephosphorylation activity (phosphopeptide phosphatase assay, free phosphate by BIOMOL GREEN)",pThr382 PTEN,NDRG2 showed a dephosphorylation activity against the peptide including the phosphorylation at Thr382 of PTEN
same,"dot blot phosphatase assay, detection with rabbit anti-Phospho-PTEN (Ser380/Thr382/Thr383) polyclonal antibodies",pThr382 PTEN,"signals disappeared in the phosphorylated peptides at Thr382, Thr382/Thr383, and Ser380/Thr382/Thr383 by the reaction with NDRG2 protein"
same,"dot blot phosphatase assay, detection with rabbit anti-Phospho-PTEN (Ser380/Thr382/Thr383) polyclonal antibodies",pThr382/pThr 383 PTEN,"signals disappeared in the phosphorylated peptides at Thr382, Thr382/Thr383, and Ser380/Thr382/Thr383 by the reaction with NDRG2 protein"
same,"production level of the phosphoric acid groups (phosphopeptide phosphatase assay, BIOMOL GREEN)",pThr382/pThr 383 PTEN,an increase in the production level of the phosphoric acid groups in the Thr382/Thr383 peptide and Ser380/Thr382/Thr383 peptide was recognized compared to the phosphorylation of Thr382 alone
same,dephosphorylation of phosphorylated peptides (DOTBLOT method),pThr383 PTEN,cannot dephosphorylate the peptide wherein only S380 or only T383 is phosphorylated
